From patent publication US20220040319A1 (Regeneron, published 2022) come the findings set out here.

The target of assay [1] is T1, hMet.mmh (human MET extracellular domain with C-terminal myc-myc-hexahistidine tag) (human, UniProt P08581 309-914; P08581 27-307).
T1 construct: soluble monomeric MET; also called monomeric human MET
The assay can be described thus: SPR 37C, antibody captured. The protocol:
(§1) The anti-Met antibodies tested in this example were bivalent monospecific binders of MET.
(§2) Kinetic association (kₐ) and dissociation (kd) rate constants were determined by fitting the real-time sensorgrams to a 1:1 binding model using Scrubber 2.0c curve fitting software. Binding dissociation equilibrium constant (KD) and dissociative half-life (t1/2) were calculated from the kinetic rate constants as: […]

The target in assay [2] is T2, hMET.mFc (dimeric human MET) (human, UniProt P08581 27-307).
T2 construct: soluble dimeric MET protein
T2 sequence (P08581 other isoform, or with tags, fused parts or gaps limits assumed, chain 1 of 2): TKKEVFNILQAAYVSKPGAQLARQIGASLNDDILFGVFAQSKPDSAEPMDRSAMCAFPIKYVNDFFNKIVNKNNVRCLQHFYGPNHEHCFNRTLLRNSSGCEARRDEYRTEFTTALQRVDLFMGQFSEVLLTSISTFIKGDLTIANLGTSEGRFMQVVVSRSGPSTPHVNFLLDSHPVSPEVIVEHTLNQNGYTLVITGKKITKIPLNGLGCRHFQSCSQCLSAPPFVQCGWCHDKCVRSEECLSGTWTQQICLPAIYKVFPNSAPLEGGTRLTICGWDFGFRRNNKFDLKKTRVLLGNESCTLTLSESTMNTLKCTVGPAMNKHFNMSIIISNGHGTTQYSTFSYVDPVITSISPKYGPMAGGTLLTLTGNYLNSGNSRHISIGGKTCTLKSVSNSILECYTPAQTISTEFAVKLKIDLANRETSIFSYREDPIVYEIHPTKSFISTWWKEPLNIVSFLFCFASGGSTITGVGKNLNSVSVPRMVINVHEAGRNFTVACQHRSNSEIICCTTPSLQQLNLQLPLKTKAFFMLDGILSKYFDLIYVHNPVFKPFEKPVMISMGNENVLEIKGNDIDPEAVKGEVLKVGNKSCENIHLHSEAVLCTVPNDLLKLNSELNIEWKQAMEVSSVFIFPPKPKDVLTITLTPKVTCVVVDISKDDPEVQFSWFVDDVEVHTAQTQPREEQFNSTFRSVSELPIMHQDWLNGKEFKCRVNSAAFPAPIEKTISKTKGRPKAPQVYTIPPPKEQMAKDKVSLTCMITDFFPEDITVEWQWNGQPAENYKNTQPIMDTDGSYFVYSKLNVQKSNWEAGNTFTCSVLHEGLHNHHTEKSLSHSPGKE
T2 sequence (P08581 27-307 limits assumed, chain 2 of 2): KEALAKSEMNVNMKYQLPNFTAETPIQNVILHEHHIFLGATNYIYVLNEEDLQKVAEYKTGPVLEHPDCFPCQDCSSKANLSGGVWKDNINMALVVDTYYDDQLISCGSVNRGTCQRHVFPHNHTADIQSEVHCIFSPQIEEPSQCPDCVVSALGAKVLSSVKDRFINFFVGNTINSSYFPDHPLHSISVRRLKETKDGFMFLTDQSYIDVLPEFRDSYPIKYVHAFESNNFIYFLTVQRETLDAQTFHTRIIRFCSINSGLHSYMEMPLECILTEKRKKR
Kind of assay: SPR 37C, antibody captured. The protocol: as §1, §2

Assay [3] concerns the target human MET on cells (human, UniProt P08581 25-1390). The assay can be described thus: cell-based or functional assay. As to % Inhibition, HEK293/SRE-Luc Blocking Activity (HGF, 1 h mAb pre-bind): test concentration or dose not given here.

Sequence of human MET on cells (P08581 25-1390 limits assumed, form in doubt): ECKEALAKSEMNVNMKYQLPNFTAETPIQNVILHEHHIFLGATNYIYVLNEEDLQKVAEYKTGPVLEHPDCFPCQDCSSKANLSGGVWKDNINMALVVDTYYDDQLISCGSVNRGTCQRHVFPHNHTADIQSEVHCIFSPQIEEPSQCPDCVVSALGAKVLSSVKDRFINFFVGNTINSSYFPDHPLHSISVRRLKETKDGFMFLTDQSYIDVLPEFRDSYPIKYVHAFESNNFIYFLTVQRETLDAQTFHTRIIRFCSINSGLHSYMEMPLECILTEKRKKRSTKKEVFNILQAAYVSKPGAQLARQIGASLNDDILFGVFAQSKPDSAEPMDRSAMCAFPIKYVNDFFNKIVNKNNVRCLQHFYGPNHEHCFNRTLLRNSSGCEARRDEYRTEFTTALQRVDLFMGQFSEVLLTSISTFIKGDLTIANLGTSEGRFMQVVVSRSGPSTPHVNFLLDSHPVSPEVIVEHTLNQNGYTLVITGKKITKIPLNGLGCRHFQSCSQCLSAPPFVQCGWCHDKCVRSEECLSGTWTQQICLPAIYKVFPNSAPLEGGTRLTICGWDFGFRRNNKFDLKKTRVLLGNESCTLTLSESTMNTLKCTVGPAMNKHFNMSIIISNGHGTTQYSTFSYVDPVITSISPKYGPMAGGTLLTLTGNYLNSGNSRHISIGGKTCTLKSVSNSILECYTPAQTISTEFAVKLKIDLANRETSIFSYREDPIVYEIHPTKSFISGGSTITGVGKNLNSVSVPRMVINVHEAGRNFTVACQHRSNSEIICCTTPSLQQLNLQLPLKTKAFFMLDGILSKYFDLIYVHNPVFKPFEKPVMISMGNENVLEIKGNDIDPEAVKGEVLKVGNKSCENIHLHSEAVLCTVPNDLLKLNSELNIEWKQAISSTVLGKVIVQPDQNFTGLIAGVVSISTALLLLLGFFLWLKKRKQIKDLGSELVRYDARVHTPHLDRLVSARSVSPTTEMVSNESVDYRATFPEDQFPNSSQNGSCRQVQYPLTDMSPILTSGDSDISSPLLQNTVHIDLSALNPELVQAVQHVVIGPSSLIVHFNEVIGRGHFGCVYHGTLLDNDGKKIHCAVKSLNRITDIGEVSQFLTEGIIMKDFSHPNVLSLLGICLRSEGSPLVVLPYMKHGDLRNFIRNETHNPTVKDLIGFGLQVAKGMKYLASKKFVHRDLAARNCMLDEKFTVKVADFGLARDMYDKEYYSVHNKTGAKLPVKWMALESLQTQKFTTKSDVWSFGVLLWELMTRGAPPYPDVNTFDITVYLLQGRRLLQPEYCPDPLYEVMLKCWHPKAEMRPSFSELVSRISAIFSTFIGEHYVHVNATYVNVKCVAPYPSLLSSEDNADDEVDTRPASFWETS
T1 sequence (P08581 other isoform, or with tags, fused parts or gaps limits assumed, chain 1 of 2): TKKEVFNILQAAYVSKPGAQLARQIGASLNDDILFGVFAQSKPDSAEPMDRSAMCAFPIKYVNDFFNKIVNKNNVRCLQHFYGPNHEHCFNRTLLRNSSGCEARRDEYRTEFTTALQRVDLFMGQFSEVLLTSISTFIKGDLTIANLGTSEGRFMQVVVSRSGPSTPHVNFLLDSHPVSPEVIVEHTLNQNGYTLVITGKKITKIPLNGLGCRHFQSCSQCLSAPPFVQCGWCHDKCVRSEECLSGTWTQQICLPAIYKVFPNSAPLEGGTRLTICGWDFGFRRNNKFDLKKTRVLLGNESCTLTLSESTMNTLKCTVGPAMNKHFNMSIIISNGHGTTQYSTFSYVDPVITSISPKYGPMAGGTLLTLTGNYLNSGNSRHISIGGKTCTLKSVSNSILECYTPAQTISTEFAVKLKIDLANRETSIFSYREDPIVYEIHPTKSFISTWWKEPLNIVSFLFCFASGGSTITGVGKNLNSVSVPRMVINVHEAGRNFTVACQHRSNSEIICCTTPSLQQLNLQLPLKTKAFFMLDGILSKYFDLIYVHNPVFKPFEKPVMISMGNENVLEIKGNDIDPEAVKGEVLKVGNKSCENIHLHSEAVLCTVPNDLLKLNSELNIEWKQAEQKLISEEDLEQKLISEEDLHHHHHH
T1 sequence (P08581 27-307 limits assumed, chain 2 of 2): as the sequence (P08581 27-307 limits assumed, chain 2 of 2) above

B1: H4H13319P2 (antibody, human IgG4, V domains shown)
VH: QVQLVESGGGVVQPGRSLRLSCAASGFTFSSFAMHWVRQAPGKGLEWVAVIWYDGSNDYYAASVKGRFTISRDNSKNTLYLEMNRLRAEDTAVYHCARDNWNYWGGMDVWGQGTTVTVSS
VL: not shown
notes: human IgG4 Fc (H4H), bivalent monospecific
In assay [1], B1 registered a Kd of 76.5 nM, a T½ of 4.9 min, a koff of 0.00238 s⁻¹ and a kon of 31100 M⁻¹ s⁻¹. In assay [2], the Kd is 1.42 nM, the T½ was found to be 21.3 min, the koff is 0.000542 s⁻¹ and the kon was 382000 M⁻¹ s⁻¹.

B2: H4H13295P2 (antibody, human IgG4, V domains shown)
VH: QVQLVESGGGVVQPGRSLRVSCVVSGFTFSSFGMHWVRQAPDKGLEWVAVIWYDGSNDYYSDSVKGRFTISRDNSKNTLFLQMNRLRAEDTAVYYCARANNWNRFDAFDLWGQGTMVTVSS
VL: not shown
notes: as for B1
In assay [1], B2 registered a dissociation constant (Kd) of 32.4 nM, a T½ of 21.4 min, an off-rate (koff) of 0.00054 s⁻¹ and an on-rate constant (kon) of 16700 M⁻¹ s⁻¹. In assay [2], this molecule yielded a Kd of 1.16 nM, a T½ of 43.8 min, a koff of 0.000264 s⁻¹ and an on-rate constant (kon) of 228000 M⁻¹ s⁻¹.

B3: H4H13331P2 (antibody, human IgG4, V domains shown)
VH: QVQLQESGPGLVKSSETLSLTCTVSGGSIRNFYWSWLRQPPGKGLEWIGHINYNGGTDYNPSLKSRVTISVDTSKNQFSLNLNSVTAADTAVYYCARQRFYGMDVWGPGTTVTVSS
VL: not shown
notes: as for B1
In assay [1], B3 gave a dissociation constant Kd of 3.35 nM, a T½ of 13.2 min, a koff of 0.000873 s⁻¹ and an association rate constant (kon) of 261000 M⁻¹ s⁻¹. In assay [2], this molecule had a dissociation constant (Kd) of 0.244 nM, a T½ of 74.1 min, an off-rate constant (koff) of 0.000156 s⁻¹ and an on-rate (kon) of 639000 M⁻¹ s⁻¹.

B4: H4H13309P2 (antibody, human IgG4, V domains shown)
VH: QVQLVQSGTEVKEPGASVKVSCKASGYSFTTYGISWLRQAPGQGLEWMGWISTYNGDTISAQMLQDRVTLTADTSTRTAYMELRSLRSDDTAVYYCARGHEYDSLVYSYWGQGTLVTVSS
VL: not shown
notes: as for B1
In assay [1], B4 displayed a Kd of 6.38 nM, a T½ of 19.7 min, a koff of 0.000587 s⁻¹ and a kon of 92000 M⁻¹ s⁻¹. In assay [2], binding was put at a Kd of 0.657 nM, the T½ was 43.3 min, the koff worked out at 0.000267 s⁻¹ and the kon was 406000 M⁻¹ s⁻¹.

B5: H4H13318P2 (antibody, human IgG4, V domains shown)
VH: QVQLVESGGGVVQPGRSLRLSCVASGFSFSNFGMHWVRQAPGKGLEWVAIIWYDGSNKYYSDSVKGRFTISRDNSKNTLYLQMNSLRVDDTAVYYCARFDRWKFDAFDIWGQGTMVTVSS
VL: not shown
notes: as for B1
In assay [1], B5 returned a Kd of 88.3 nM, a T½ of 4 min, a koff of 0.00292 s⁻¹ and a kon of 33000 M⁻¹ s⁻¹. In assay [2], this molecule registered a Kd of 0.467 nM, a T½ of 70.2 min, a koff of 0.000165 s⁻¹ and a kon of 352000 M⁻¹ s⁻¹.

B6: H4H16445D (bispecific antibody, human IgG4, V domains shown)
VH 1: QVQLVESGGGVVQPGGSLRLSCAASGFTFSGYGMHWVRQAPGKGLEWMAVIWYDGSNDYYPDSVKGRFTISRDNSKNTLYLQMNSLRVEDTAVYYCARDAWDLLRSFDYWGQGTLVTVSS
VH 2: EVQLVESGGGLVQPGGSLRLSCAASGFIVTTNYMTWLRQAPGKGLEWVSLIYSSGHTYYADSVKGRFTISRHNSKNTLYLQMDSLRAEDTAVYYCASAFAADVFDIWGQGTMVTVSS
VL: not shown
In the case of B6, in assay [3], the “% Inhibition, HEK293/SRE-Luc Blocking Activity (HGF, 1 h mAb pre-bind)” value was determined as 81%; the “EC50, Ligand (HGF)-Independent HEK293/SRE-Luc Activation” value is 1 nM; the “Fold Response, Ligand (HGF)-Independent HEK293/SRE-Luc Activation” value was found to be 4.3 fold; the “IC50, HEK293/SRE-Luc Blocking Activity (HGF, 1 h mAb pre-bind)” value (“IC50, HEK293/SRE-Luc Blocking Activity” for short) worked out at 0.52 nM.

B7: H4H16446D (bispecific antibody, human IgG4, V domains shown)
VH 1: QVQLVESGGGVVQPGRSLRLSCAVSGFTFSSYGMHWVRQAPGKGLEWVANIWYDGTNDYYPYSVKGRFTISRDNSQNTLYLQMNSLRAEDTAVYYCAREDFINYRSFDYWGQGTLVTVSS
VH 2: EVQLVESGGGLVQPGGSLRLSCAASGFIVTTNYMTWLRQAPGKGLEWVSLIYSSGHTYYADSVKGRFTISRHNSKNTLYLQMDSLRAEDTAVYYCASAFAADVFDIWGQGTMVTVSS
VL: not shown
With B7, in assay [3], the “% Inhibition, HEK293/SRE-Luc Blocking Activity (HGF, 1 h mAb pre-bind)” value was 83%; the “EC50, Ligand (HGF)-Independent HEK293/SRE-Luc Activation” value was found to be 1.4 nM; the “Fold Response, Ligand (HGF)-Independent HEK293/SRE-Luc Activation” value stood at 4 fold; the “IC50, HEK293/SRE-Luc Blocking Activity” value was found to be 1 nM.

B8: H4H13291P2 (antibody, human IgG4, V domains shown)
VH: QVQLVESGGGVVQPGGSLRLSCAASGFTFSGYGMHWVRQAPGKGLEWMAVIWYDGSNDYYPDSVKGRFTISRDNSKNTLYLQMNSLRVEDTAVYYCARDAWDLLRSFDYWGQGTLVTVSS
VL: not shown
notes: as for B1
For the molecule B8, in assay [1], binding was put at a Kd of 93.4 nM, the T½ was determined as 4.8 min, the koff was 0.00238 s⁻¹ and the on-rate constant (kon) turned out to be 25500 M⁻¹ s⁻¹. For the same molecule, in assay [2], the dissociation constant Kd amounted to 1.02 nM, the T½ stood at 34 min, the koff came out at 0.000339 s⁻¹ and the kon stood at 333000 M⁻¹ s⁻¹.

B9: H4H16449D (bispecific antibody, human IgG4, V domains shown)
VH 1: QVQLVESGGGVVQPGRSLRLSCAASGFTFSSFAMHWVRQAPGKGLEWVAVIWYDGSNDYYAASVKGRFTISRDNSKNTLYLEMNRLRAEDTAVYHCARDNWNYWGGMDVWGQGTTVTVSS
VH 2: EVQLVESGGGLVQPGGSLRLSCAASGFIVTTNYMTWLRQAPGKGLEWVSLIYSSGHTYYADSVKGRFTISRHNSKNTLYLQMDSLRAEDTAVYYCASAFAADVFDIWGQGTMVTVSS
VL: not shown
On to B9, for which, in assay [3], the “% Inhibition, HEK293/SRE-Luc Blocking Activity (HGF, 1 h mAb pre-bind)” value is 85%; the “EC50, Ligand (HGF)-Independent HEK293/SRE-Luc Activation” value is 0.42 nM; the “Fold Response, Ligand (HGF)-Independent HEK293/SRE-Luc Activation” value was 4.2 fold; the “IC50, HEK293/SRE-Luc Blocking Activity” value was determined as 0.32 nM.

B10: H4H16448D (bispecific antibody, human IgG4, V domains shown)
VH 1: QVQLVESGGGVVQPGRSLRLSCVASGFSFSNFGMHWVRQAPGKGLEWVAIIWYDGSNKYYSDSVKGRFTISRDNSKNTLYLQMNSLRVDDTAVYYCARFDRWKFDAFDIWGQGTMVTVSS
VH 2: EVQLVESGGGLVQPGGSLRLSCAASGFIVTTNYMTWLRQAPGKGLEWVSLIYSSGHTYYADSVKGRFTISRHNSKNTLYLQMDSLRAEDTAVYYCASAFAADVFDIWGQGTMVTVSS
VL: not shown
For B10, in assay [3], the “% Inhibition, HEK293/SRE-Luc Blocking Activity (HGF, 1 h mAb pre-bind)” value came out at 87%; the “EC50, Ligand (HGF)-Independent HEK293/SRE-Luc Activation” value is 0.91 nM; the “Fold Response, Ligand (HGF)-Independent HEK293/SRE-Luc Activation” value stood at 4.3 fold; the “IC50, HEK293/SRE-Luc Blocking Activity” value turned out to be 0.62 nM.

B11: H4H16447D (bispecific antibody, human IgG4, V domains shown)
VH 1: QVQLVESGGGVVQPGRSLRLSCAASGFTFSSYAMHWVRQAPGRGLEWVAVIWHDGDVEYYVDSVKDRFTISRDNSKSTLYLQMNSLRAEDTALYYCAREAWDLLRPFDYWGQGTLVTVSS
VH 2: EVQLVESGGGLVQPGGSLRLSCAASGFIVTTNYMTWLRQAPGKGLEWVSLIYSSGHTYYADSVKGRFTISRHNSKNTLYLQMDSLRAEDTAVYYCASAFAADVFDIWGQGTMVTVSS
VL: not shown
For the molecule B11, in assay [3], the “% Inhibition, HEK293/SRE-Luc Blocking Activity (HGF, 1 h mAb pre-bind)” value came to 76% and the “EC50, Ligand (HGF)-Independent HEK293/SRE-Luc Activation” value worked out at 1.4 nM.

B12: H4H13325P2 (antibody, human IgG4, V domains shown)
VH: EVQLLESGGGWVQPGGSLRLSCAASGFAFSNYAMNWVRQTPGKGLEWVSVISSSGGNTYYADSVKGRFAISRDNSRDTLHLQMNRLRVEDTAVYYCAKEIRPYYDLSYYYGMDVWGQGTTVTVSS
VL: not shown
notes: as for B1
As to B12, in assay [1], the affinity, expressed as Kd, was 24.8 nM; the T½ came out at 4.9 min; the koff was 0.00236 s⁻¹; the kon is 95300 M⁻¹ s⁻¹. In assay [2], the Kd came out at 0.605 nM, the T½ was found to be 62.4 min, the koff is 0.000185 s⁻¹ and the on-rate constant (kon) was found to be 306000 M⁻¹ s⁻¹.

B13: H4H13311P2 (antibody, human IgG4, V domains shown)
VH: QVQLVESGGGVVQPGRSLRLSCAASGFTFSSYAMHWVRQAPGRGLEWVAVIWHDGDVEYYVDSVKDRFTISRDNSKSTLYLQMNSLRAEDTALYYCAREAWDLLRPFDYWGQGTLVTVSS
VL: not shown
notes: as for B1
With B13, in assay [1], the Kd was 116 nM, the T½ is 2.2 min, the koff is 0.00519 s⁻¹ and the kon was 44800 M⁻¹ s⁻¹. In assay [2], this molecule showed a dissociation constant Kd of 1.55 nM, a T½ of 24.7 min, a koff of 0.000468 s⁻¹ and a kon of 302000 M⁻¹ s⁻¹.

B14: H4H13290P2 (antibody, human IgG4, V domains shown)
VH: QVQLQESGPGLVKPSETLSLTCTVSGDSISSYYWTWIRQPPGKGLEWIGYIFYRGGTTYNPSLKSRVTISVDTSKNQFSLKLRSVTAADTAVYYCARGDDLLVVTSVYWYIDLWGRGTLVTVSS
VL: not shown
notes: as for B1
For B14, in assay [1], the affinity, expressed as Kd, was 3.17 nM; the T½ was found to be 14.4 min; the off-rate (koff) came to 0.000803 s⁻¹; the kon was 253000 M⁻¹ s⁻¹. In assay [2], this molecule yielded a Kd of 0.513 nM, a T½ of 36.6 min, a koff of 0.000315 s⁻¹ and an on-rate constant (kon) of 615000 M⁻¹ s⁻¹.

B15: H4H13316P2 (antibody, human IgG4, V domains shown)
VH: EVQLVESGGGLVQPGGSLRLSCAASGFTFRSYVMSWFRQAPGKGLEWVSGMSGSGGSTSYADSVKGRFTISRDNSKNTLYLLMNSLRTEDTAVYYCAKENGANWNYGYYGMDVWGQGTTVTVSS
VL: not shown
notes: as for B1
As for B15, in assay [1], the dissociation constant (Kd) amounted to 19.3 nM, the T½ turned out to be 7.6 min, the dissociation rate constant (koff) came to 0.00151 s⁻¹ and the kon was found to be 78200 M⁻¹ s⁻¹. For the same molecule, in assay [2], the dissociation constant (Kd) turned out to be 0.367 nM, the T½ is 107 min, the koff was found to be 0.000108 s⁻¹ and the association rate constant (kon) is 293000 M⁻¹ s⁻¹.

B16: H4H13313P2 (antibody, human IgG4, V domains shown)
VH: QVQLVESGGGVVQPGRSLRLSCSASGFSFSHFGMHWVRQVPGGGLEWVTSIWFDGSNRYYADSLKGRFTISRDNSKNTLYLEMNSLRAEDTAVYYCVREGILGTTNPYDVFDVWGQGTMVTVSS
VL: not shown
notes: as for B1
On to B16, for which, in assay [1], binding was put at a Kd of 64.9 nM, the T½ was determined as 2 min, the off-rate (koff) was found to be 0.0057 s⁻¹ and the on-rate constant (kon) is 87800 M⁻¹ s⁻¹. Moreover, in assay [2], the dissociation constant (Kd) was determined as 1.19 nM, the T½ is 12.9 min, the off-rate (koff) came to 0.000893 s⁻¹ and the on-rate constant (kon) came to 750000 M⁻¹ s⁻¹.
